# Legend:
# [1] = target: GST-H1.2 wild type (human) (UniProt P16403); experiment: pull-down; GST-H1.2 attached to glutathione beads, FITC-conjugated H3 peptides in solution; increasing KCl from 100 to 400 mM (Fig. S1A)
# [2] = target: Flag-tagged K27-mutated (K27R) H3 (in mononucleosomes) (human) (UniProt P68431); experiment: co-IP; MCF7 cells transfected with Flag-H3 WT or K27R; mononucleosomes by MNase digestion, immunoprecipitated with Flag antibody; Western blot with H1.2 antibody (Fig. 2A)
fold weaker interaction than the H3K27me3 peptide at elevated KCl [1] [fold],fold reduction of the interaction against wild type H3 nucleosomes [2] [fold],Substance
3,–,FITC-conjugated H3K27me1 peptide
3,–,FITC-conjugated H3K27me0 peptide
–,2.5,linker histone H1.2 (endogenous) (from UniProt P16403 1-213) (natural protein)
3,–,FITC-conjugated H3K27me2 peptide

# Source: paper PMC4652225
